Like-named read-outs stand apart in the source and are kept apart here. Starred links: 1 amine or outer side, 2 acyl side, 3 side chain; linkers in the order of their positions; H or OH if unused. Positions of bridges follow the written chain, without caps; N, C: chain ends. Non-standard residues stand in square brackets, D forms with d. Residues, ends and D or L forms follow the SMILES beside them. Chains are numbered I, II in the order given. *: point of attachment. X1 = O=C(CCP(=O)(O)CN1CCN(CP(=O)(O)CCC(=O)NCCCn2cc(CCC(=O)[*:2])nn2)CCN(CP(=O)(O)CCC(=O)NCCCn2cc(CCC(=O)[*:3])nn2)CC1)NCCCn1cc(CCC(=O)[*:1])nn1; X2 = O=C(O)CCP(=O)(O)CN1CCN(CP(=O)(O)CCC(=O)O)CCN(CP(=O)(O)CCC(=O)NCCCn2cc(CCC(=O)*)nn2)CC1; NMeK = CN[C@@H](CCCCN)C(=O)O; Pent4ynoyl = C#CCCC(=O)*
How the values were obtained:
[1] = test system: MeWo (human melanoma) xenografted SCID mice; parameters: method as in PMID 23283986; details: cited from earlier work
αvβ8-integrin = αvβ8-integrin (Homo sapiens, UniProt P06756+P26012); experiment: solid-phase binding assay, αvβ8-integrin affinity
Chain of αvβ8-integrin (P06756 31-992 limits assumed): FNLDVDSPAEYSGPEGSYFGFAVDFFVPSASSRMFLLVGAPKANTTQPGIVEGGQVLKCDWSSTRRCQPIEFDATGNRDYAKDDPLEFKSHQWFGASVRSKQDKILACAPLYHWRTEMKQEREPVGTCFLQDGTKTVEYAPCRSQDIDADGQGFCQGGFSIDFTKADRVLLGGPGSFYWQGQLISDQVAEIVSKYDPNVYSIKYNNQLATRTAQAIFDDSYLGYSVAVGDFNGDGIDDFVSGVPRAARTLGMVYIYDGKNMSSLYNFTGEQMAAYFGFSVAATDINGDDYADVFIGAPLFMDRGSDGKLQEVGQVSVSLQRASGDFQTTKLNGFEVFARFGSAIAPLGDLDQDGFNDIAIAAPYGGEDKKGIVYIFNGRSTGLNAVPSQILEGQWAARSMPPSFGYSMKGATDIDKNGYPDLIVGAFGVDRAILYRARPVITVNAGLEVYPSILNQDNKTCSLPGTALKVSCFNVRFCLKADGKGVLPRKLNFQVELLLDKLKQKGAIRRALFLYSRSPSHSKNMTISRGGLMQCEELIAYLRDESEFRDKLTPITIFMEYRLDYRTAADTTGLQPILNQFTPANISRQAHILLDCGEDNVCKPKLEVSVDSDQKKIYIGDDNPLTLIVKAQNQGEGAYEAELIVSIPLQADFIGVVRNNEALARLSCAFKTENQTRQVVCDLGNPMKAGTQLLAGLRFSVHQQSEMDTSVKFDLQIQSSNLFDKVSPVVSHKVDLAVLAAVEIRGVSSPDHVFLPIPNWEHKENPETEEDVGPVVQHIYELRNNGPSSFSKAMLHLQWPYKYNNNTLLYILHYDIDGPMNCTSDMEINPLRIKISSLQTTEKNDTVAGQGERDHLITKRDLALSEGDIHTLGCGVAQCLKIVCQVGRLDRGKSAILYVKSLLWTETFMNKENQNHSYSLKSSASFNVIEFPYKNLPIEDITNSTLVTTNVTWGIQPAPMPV
Chain of αvβ8-integrin (P26012 43-684 limits assumed): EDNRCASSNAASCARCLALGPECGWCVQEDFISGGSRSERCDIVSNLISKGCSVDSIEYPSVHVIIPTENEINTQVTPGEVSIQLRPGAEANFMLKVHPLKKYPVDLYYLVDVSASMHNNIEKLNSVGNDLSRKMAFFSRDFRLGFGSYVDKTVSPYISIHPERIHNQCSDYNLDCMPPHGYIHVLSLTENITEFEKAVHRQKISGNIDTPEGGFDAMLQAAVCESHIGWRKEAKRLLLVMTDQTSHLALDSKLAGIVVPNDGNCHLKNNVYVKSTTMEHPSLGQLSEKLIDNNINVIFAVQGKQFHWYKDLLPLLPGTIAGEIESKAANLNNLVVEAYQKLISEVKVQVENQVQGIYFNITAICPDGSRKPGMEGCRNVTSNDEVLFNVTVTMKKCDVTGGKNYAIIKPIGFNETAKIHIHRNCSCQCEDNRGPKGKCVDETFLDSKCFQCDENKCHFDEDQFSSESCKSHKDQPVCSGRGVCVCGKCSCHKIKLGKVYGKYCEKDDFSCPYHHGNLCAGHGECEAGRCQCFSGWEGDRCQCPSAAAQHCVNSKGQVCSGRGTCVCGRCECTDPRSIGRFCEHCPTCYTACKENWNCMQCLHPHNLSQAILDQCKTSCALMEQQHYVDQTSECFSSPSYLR
Procedure: (§1) Synthesis and characterization of Triveoctin is described in the Additional file 1. The integrin affinities were determined by a solid-phase binding assay, applying a previously described protocol. β8 immunohistochemistry stainings were done as described. All animal studies have been performed in accordance with general animal welfare regulations in Germany and the institutional guidelines for the care and use of animals. ^68Ga radiolabeling, cultivation of MeWo cells and generation of respective subcutaneous xenografts, determination of n-octanol/phosphate-buffered saline (PBS) distribution coefficients (log D) and ex-vivo biodistribution studies, and µPET imaging were done as described previously in detail (a brief summary is provided in the following).

[2] = parameters: species or system human; details: in vivo
Procedure: (§2) Application of ^68Ga-Triveoctin was done according to §13/2b of the German Drug Act (Arzneimittelgesetz). A human subject received a single intravenous injection of ^68Ga-Triveoctin (173 MBq, approx. 25 µg; for radiolabeling and QC, see Additional file 1). […] 25 min p.i., the patient underwent a list-mode PET/CT imaging protocol on a Biograph Vision 600 (Siemens Healthineers, Knoxville, USA). A standard low-dose CT was acquired from the whole body (X-ray tube current 10 mA, tube voltage 100 kV, spiral pitch factor 1.5, 3.0 mm slice thickness) and used for absolute scatter correction of the subsequent PET scan. The emission PET scan was acquired over 19 min using continuous bed motion with a speed of 2.2 mm s^–1 for the legs and 1.4 mm s^–1 for the remaining body. The PET scan was repeated 45 min p.i. without another CT scan. Another PET/CT imaging sequence was acquired 90 min p.i. as the subject had to leave the scanner for voiding. All scans were obtained during normal breathing. PET images were reconstructed using the TRueX algorithm with 4 iterations, 5 subsets, time-of-flight (TOF) application and without filtering. […] The dosimetry values were calculated using OLINDA V1.1 [24] on the basis of the human PET data.
Assuming that an activity of 100 MBq ^68Ga-Triveoctin is sufficient for a PET scan at 30–60 min p.i., up to 6 investigations could be performed without exceeding the 20 mSv limit.

[3] = test system: MeWo (human melanoma) xenografted SCID mice; experiment: in vivo; details: mouse
Procedure: as §1
(§3) MeWo cells (ATCC®, HTB-65™) were grown at 37 °C under 5% CO2 atmosphere in DMEM/HAM (Biochrom, Berlin, Germany) with 10% fetal calf serum (Thermo Fisher). Approx. 10^7 cells were subcutaneously injected with Matrigel® (Corning, #354262) into the right shoulder of 6–8-week-old female CB17 severe combined immunodeficiency (SCID) mice, which were used about 2–3 weeks later for PET and biodistribution.
(§4) Fig. 3 Biodistribution of ^68Ga-Triveoctin, 60 min p.i. (43 ± 13 pmol, n = 6; blockade with 60 nmol Triveoctin injected 5 min prior to the radiopharmaceutical, n = 4) in MeWo-xenografted SCID mice, uptakes expressed as % injected dose per gram tissue; mean ± SD. Data for ^68Ga-TRAP-AvB8 (control: 77 ± 24 pmol, n = 11; blockade: n = 3) were taken from the literature and are shown for comparison. Data in numerical form are given in the Additional file 1: Table S1

in vivo = experiment: in vivo; parameters: species or system mice; details: female, CB17 SCID, mouse; for tissue uptake at 1 h: 43 pmol
Procedure: as §1, §3, §4

clinical = details: human, in vivo
Procedure: Using a fully automated synthesis module, the eluate of a ^68Ge/^68Ga generator (by Eckert & Ziegler, Berlin, Germany; 0.1 M HCl, approx. 500 MBq ^68Ga) was directly eluted into the reaction vial containing Triveoctin (35 µg) and adjusted to pH 4.5 with sodium acetate. After heating for 4 min at 95 °C, the mixture was passed over a solid-phase extraction cartridge (Waters Sep-Pak®light tC-18), which was purged with water (10 mL). Thereafter, ^68Ga-Triveoctin was eluted with ethanol/water mixture (1:1 by volume, 1 mL), followed by isotonic saline (9 mL). The formulation containing approx. 5% ethanol was passed through a 0.22-µm filter into a sterile injection vial and dispensed for injection. Quality control was done by radio-HPLC using a Shimadzu system equipped with a column Chromolith® Performance RP18e (Phenomenex, Aschaffenburg, Germany), gradient 0–100% acetonitrile in water within 15 min, flow rate 1.4 mL/min, tR = 8.53 min, and met the in-house specifications for ^68Ga-labeled compounds (> 95%).
as §2

[4] = non-radioactive 69/71Ga(III) complexes where applicable, read-out: αvβ8-Integrin affinity IC50 (95% confidence interval)
[5] = female, CB17 SCID, 43 pmol, 1 h

CC(C)C[C@@H]1NC(=O)CNC(=O)[C@H](CCCCNC(=O)CCc2cn(CCCNC(=O)CCP(=O)(O)CN3CCN(CP(=O)(O)CCC(=O)O)CCN(CP(=O)(O)CCC(=O)O)CC3)nn2)N(C)C(=O)[C@H]2CCCN2C(=O)[C@H](CC(C)C)NC(=O)[C@H](CC(=O)O)NC(=O)CNC(=O)[C@H](CCCNC(=N)N)NC1=O [^68Ga-TRAP-AvB8, metal not drawn] (cyclo(GLRGDL[dP][NMeK](X2)))
kidney uptake ([1]; 60 min p.i., average): 3.6 %IA/g | tumor uptake upon blockade ([1]; blockade n = 3): 0.25 %IA/g | tumor uptake ([1]; control n = 11): 1.0 %IA/g | IC50 (αvβ8-integrin): 38 nM

C#CCCC(=O)NCCCC[C@H]1C(=O)NCC(=O)N[C@@H](CC(C)C)C(=O)N[C@@H](CCCNC(=N)N)C(=O)NCC(=O)N[C@@H](CC(=O)O)C(=O)N[C@@H](CC(C)C)C(=O)N2CCC[C@@H]2C(=O)N1C [AvB8-pentynoic amide, cyclo(GLRGDLp(NMe)K(pent-4-ynoic amide))] (cyclo(GLRGDL[dP][NMeK](Pent4ynoyl)))
IC50 (αvβ8-integrin; [4]): 17 nM

CC(C)C[C@@H]1NC(=O)CNC(=O)[C@H](CCCCNC(=O)CCc2cn(CCCNC(=O)CCP(=O)(O)CN3CCN(CP(=O)(O)CCC(=O)NCCCn4cc(CCC(=O)NCCCC[C@H]5C(=O)NCC(=O)N[C@@H](CC(C)C)C(=O)N[C@@H](CCCNC(=N)N)C(=O)NCC(=O)N[C@@H](CC(=O)O)C(=O)N[C@@H](CC(C)C)C(=O)N6CCC[C@@H]6C(=O)N5C)nn4)CCN(CP(=O)(O)CCC(=O)NCCCn4cc(CCC(=O)NCCCC[C@H]5C(=O)NCC(=O)N[C@@H](CC(C)C)C(=O)N[C@@H](CCCNC(=N)N)C(=O)NCC(=O)N[C@@H](CC(=O)O)C(=O)N[C@@H](CC(C)C)C(=O)N6CCC[C@@H]6C(=O)N5C)nn4)CC3)nn2)N(C)C(=O)[C@H]2CCCN2C(=O)[C@H](CC(C)C)NC(=O)[C@H](CC(=O)O)NC(=O)CNC(=O)[C@H](CCCNC(=N)N)NC1=O [^68Ga-Triveoctin, metal not drawn] (I: cyclo(RGDL[dP][NMeK]GL) / II: cyclo(RGDL[dP][NMeK]GL) / III: cyclo(RGDL[dP][NMeK]GL); linker I:6-II:6-III:6 via X1)
Dose estimate, Adrenals [2]: 2.69E−02 mGy/MBq | Dose estimate, Brain [2]: 5.23E−03 mGy/MBq | Dose estimate, Breasts [2]: 5.46E−03 mGy/MBq | Dose estimate, Gallbladder wall [2]: 1.00E−02 mGy/MBq | Dose estimate, Heart wall [2]: 1.52E−02 mGy/MBq | Dose estimate, Kidneys [2]: 2.60E−01 mGy/MBq | Dose estimate, LLI wall [2]: 2.08E−02 mGy/MBq | Dose estimate, Liver [2]: 2.43E−02 mGy/MBq | Dose estimate, Lungs [2]: 7.83E−03 mGy/MBq | Dose estimate, Muscle [2]: 7.23E−03 mGy/MBq | Dose estimate, Osteogenic cells [2]: 8.89E−03 mGy/MBq | Dose estimate, Ovaries [2]: 1.13E−02 mGy/MBq | Dose estimate, Pancreas [2]: 2.01E−02 mGy/MBq | Dose estimate, Red marrow [2]: 6.48E−03 mGy/MBq | Dose estimate, Skin [2]: 5.60E−03 mGy/MBq | Dose estimate, Small intestine [2]: 3.52E−02 mGy/MBq | Dose estimate, Spleen [2]: 4.42E−02 mGy/MBq | Dose estimate, Stomach wall [2]: 1.95E−02 mGy/MBq | Dose estimate, Testes [2]: 8.14E−03 mGy/MBq | Dose estimate, Thymus [2]: 6.17E−03 mGy/MBq | Dose estimate, Thyroid [2]: 5.72E−03 mGy/MBq | Dose estimate, Total body [2]: 9.41E−03 mGy/MBq | Dose estimate, ULI wall [2]: 1.57E−02 mGy/MBq | Dose estimate, Urinary bladder wall [2]: 3.42E−01 mGy/MBq | Dose estimate, Uterus [2]: 1.57E−02 mGy/MBq | effective dose (ICRP 60) [2]: 3.00E−02 mSv/MBq | Kidneys uptake [3, 5]: 35 %IA/g | Tumor MeWo uptake [3, 5]: 1.9 %IA/g | tumor/adrenals ratio [3]: 5.7 ± 2.3 | tumor/blood ratio [3]: 6.7 | tumor/eye ratio [3]: 1.0 ± 0.2 | tumor/large intestine (empty) ratio [3]: 11.0 ± 1.6 | tumor/liver ratio [3]: 6.8 | tumor/muscle ratio [3]: 29 | tumor/small intestine (empty) ratio [3]: 11.6 ± 3.9 | tissue uptake at 1 h (in vivo; Adrenals uptake): 0.39 ± 0.23 %ID/g | tissue uptake at 1 h (in vivo; Blood uptake): 0.28 ± 0.06 %ID/g | tissue uptake at 1 h (in vivo; Eye uptake): 1.95 ± 0.44 %ID/g | tissue uptake at 1 h (in vivo; Heart (myocard) uptake): 0.16 ± 0.04 %ID/g | tissue uptake at 1 h (in vivo; Kidneys uptake): 35.3 ± 6.3 %ID/g | tissue uptake at 1 h (in vivo; Large intestine (empty) uptake): 0.17 ± 0.03 %ID/g | tissue uptake at 1 h (in vivo; Liver uptake): 0.28 ± 0.06 %ID/g | tissue uptake at 1 h (in vivo; Lung uptake): 0.68 ± 0.19 %ID/g | tissue uptake at 1 h (in vivo; Muscle uptake): 0.07 ± 0.01 %ID/g | tissue uptake at 1 h (in vivo; Pancreas uptake): 0.12 ± 0.02 %ID/g | tissue uptake at 1 h (in vivo; Small intestine (empty) uptake): 0.18 ± 0.09 %ID/g | tissue uptake at 1 h (in vivo; Spleen uptake): 0.23 ± 0.03 %ID/g | tissue uptake at 1 h (in vivo; Stomach (empty) uptake): 0.22 ± 0.07 %ID/g | tissue uptake at 1 h (in vivo; Tumor MeWo uptake): 1.86 ± 0.31 %ID/g | tissue to tissue ratio at 1 h (in vivo; total radioactivity, kidney-to-blood ratio): 126 | tissue to tissue ratio at 1 h (in vivo; total radioactivity, kidney-to-muscle ratio): 505 | tissue to tissue ratio at 1 h (in vivo; tumor/blood ratio): 6.7 ± 0.7 | tissue to tissue ratio at 1 h (in vivo; tumor/heart (myocard) ratio): 11.7 ± 1.7 | tissue to tissue ratio at 1 h (in vivo; tumor/kidneys ratio): 0.1 | tissue to tissue ratio at 1 h (in vivo; tumor/liver ratio): 6.8 ± 1.4 | tissue to tissue ratio at 1 h (in vivo; tumor/lung ratio): 2.8 ± 0.7 | tissue to tissue ratio at 1 h (in vivo; tumor/muscle ratio): 29 ± 6 | tissue to tissue ratio at 1 h (in vivo; tumor/pancreas ratio): 15.7 ± 3.5 | tissue to tissue ratio at 1 h (in vivo; tumor/spleen ratio): 7.9 ± 1.5 | tissue to tissue ratio at 1 h (in vivo; tumor/stomach (empty) ratio): 8.8 ± 2.2 | half-life (clinical): 1.8 h | kidney-to-blood ratio (clinical): approx. 15 | kidney-to-muscle ratio (clinical): ~30 | SUV at 1.5 h (clinical; iv, 173 MBq, total radioactivity): 6.1 SUV | tissue to tissue ratio at 1.5 h (clinical; iv, 173 MBq, total radioactivity, kidney-to-blood ratio): 15 | tissue to tissue ratio at 1.5 h (clinical; iv, 173 MBq, total radioactivity, kidney-to-blood ratio, times lower in human than in mice): 8 | tissue to tissue ratio at 1.5 h (clinical; iv, 173 MBq, total radioactivity, kidney-to-muscle ratio): 30 | tissue to tissue ratio at 1.5 h (clinical; iv, 173 MBq, total radioactivity, kidney-to-muscle ratio, times lower in human than in mice): 16 | IC50 (αvβ8-integrin; [4]): 5.7 nM
